In patent publication US20140155325A1 (Janssen / Centocor, published 2014):

Key:
[1] = target: recombinant human c-Met Fc chimera (human) (UniProt P08581); test: SPR (ProteOn), c-Met-Fc captured by anti-human Fc
[2] = target: recombinant human c-Met Fc chimera (human) (UniProt P08581); test: HGF competition (biotinylated HGF on coated c-Met-Fc)
[3] = target: recombinant human c-Met Fc chimera (human) (UniProt P08581); test: SPR, serine scan in the context of ECB15

Row | Kd [1] | IC50 [2] | Fold Change of KD against parent [3] | Kd [3] | koff [3] | kon [3] | Binder
1 | 6.9 nM | 1 nM | – | – | – | – | P114AR7P93-G8 (designed binder, not shown: small tags and cut ends) LPAPKNLVVSRVTEDSARLSWTAPDAAFDSFWIRYFEFLGSGEAIVLTVPGSERSYDLTDLKPGTEYGVTINGVKGGRVSTPLSAIFTT
2 | – | – | 0.75 fold | 0.3 nM | 0.00015 s⁻¹ | 440000 M⁻¹ s⁻¹ | A3 K78S (designed binder) LPAPKNLVVSEVTEDSARLSWDDPWAFYESFLIQYQESEKVGEAIVLTVPGSERSYDLTGLKPGTEYTVSIYGVHNVYKDTNMRGLPLSAIFTTAPAPAPAPAPLPAPKNLVVSRVTEDSARLSWTAPDAAFDSFWIRYFEFLGSGEAIVLTVPGSERSYDLTGLKPGTEYVVNIMGVKGGSISPPLSAIFTT
3 | – | – | 74.5 fold | 29.8 nM | 0.0086 s⁻¹ | 289000 M⁻¹ s⁻¹ | A3 W32S (designed binder) LPAPKNLVVSEVTEDSARLSWDDPWAFYESFLIQYQESEKVGEAIVLTVPGSERSYDLTGLKPGTEYTVSIYGVHNVYKDTNMRGLPLSAIFTTAPAPAPAPAPLPAPKNLVVSRVTEDSARLSWTAPDAAFDSFSIRYFEFLGSGEAIVLTVPGSERSYDLTGLKPGTEYVVNIMGVKGGKISPPLSAIFTT
4 | – | – | 4.25 fold | 1.7 nM | 0.000536 s⁻¹ | 321000 M⁻¹ s⁻¹ | A3 P81S (designed binder) LPAPKNLVVSEVTEDSARLSWDDPWAFYESFLIQYQESEKVGEAIVLTVPGSERSYDLTGLKPGTEYTVSIYGVHNVYKDTNMRGLPLSAIFTTAPAPAPAPAPLPAPKNLVVSRVTEDSARLSWTAPDAAFDSFWIRYFEFLGSGEAIVLTVPGSERSYDLTGLKPGTEYVVNIMGVKGGKISSPLSAIFTT
5 | – | – | 9 fold | 3.6 nM | 0.0012 s⁻¹ | 329000 M⁻¹ s⁻¹ | A3 V68S (designed binder) LPAPKNLVVSEVTEDSARLSWDDPWAFYESFLIQYQESEKVGEAIVLTVPGSERSYDLTGLKPGTEYTVSIYGVHNVYKDTNMRGLPLSAIFTTAPAPAPAPAPLPAPKNLVVSRVTEDSARLSWTAPDAAFDSFWIRYFEFLGSGEAIVLTVPGSERSYDLTGLKPGTEYSVNIMGVKGGKISPPLSAIFTT
6 | – | – | 1790 fold | 717 nM | 0.0323 s⁻¹ | 45100 M⁻¹ s⁻¹ | A3 F38S (designed binder) LPAPKNLVVSEVTEDSARLSWDDPWAFYESFLIQYQESEKVGEAIVLTVPGSERSYDLTGLKPGTEYTVSIYGVHNVYKDTNMRGLPLSAIFTTAPAPAPAPAPLPAPKNLVVSRVTEDSARLSWTAPDAAFDSFWIRYFESLGSGEAIVLTVPGSERSYDLTGLKPGTEYVVNIMGVKGGKISPPLSAIFTT
7 | – | – | 14.8 fold | 5.9 nM | 0.00249 s⁻¹ | 425000 M⁻¹ s⁻¹ | A3 N70S (designed binder) LPAPKNLVVSEVTEDSARLSWDDPWAFYESFLIQYQESEKVGEAIVLTVPGSERSYDLTGLKPGTEYTVSIYGVHNVYKDTNMRGLPLSAIFTTAPAPAPAPAPLPAPKNLVVSRVTEDSARLSWTAPDAAFDSFWIRYFEFLGSGEAIVLTVPGSERSYDLTGLKPGTEYVVSIMGVKGGKISPPLSAIFTT
8 | – | – | 68 fold | 27.2 nM | 0.00512 s⁻¹ | 188000 M⁻¹ s⁻¹ | A3 F36S (designed binder) LPAPKNLVVSEVTEDSARLSWDDPWAFYESFLIQYQESEKVGEAIVLTVPGSERSYDLTGLKPGTEYTVSIYGVHNVYKDTNMRGLPLSAIFTTAPAPAPAPAPLPAPKNLVVSRVTEDSARLSWTAPDAAFDSFWIRYSEFLGSGEAIVLTVPGSERSYDLTGLKPGTEYVVNIMGVKGGKISPPLSAIFTT
9 | – | – | 4.25 fold | 1.7 nM | 0.00032 s⁻¹ | 185000 M⁻¹ s⁻¹ | A3 G40S (designed binder) LPAPKNLVVSEVTEDSARLSWDDPWAFYESFLIQYQESEKVGEAIVLTVPGSERSYDLTGLKPGTEYTVSIYGVHNVYKDTNMRGLPLSAIFTTAPAPAPAPAPLPAPKNLVVSRVTEDSARLSWTAPDAAFDSFWIRYFEFLSSGEAIVLTVPGSERSYDLTGLKPGTEYVVNIMGVKGGKISPPLSAIFTT
10 | – | – | 6.75 fold | 2.7 nM | 0.00127 s⁻¹ | 475000 M⁻¹ s⁻¹ | A3 L39S (designed binder) LPAPKNLVVSEVTEDSARLSWDDPWAFYESFLIQYQESEKVGEAIVLTVPGSERSYDLTGLKPGTEYTVSIYGVHNVYKDTNMRGLPLSAIFTTAPAPAPAPAPLPAPKNLVVSRVTEDSARLSWTAPDAAFDSFWIRYFEFSGSGEAIVLTVPGSERSYDLTGLKPGTEYVVNIMGVKGGKISPPLSAIFTT
11 | 10.1 nM | 5.2 nM | – | – | – | – | P114AR5P74-A5 (designed binder, not shown: small tags and cut ends) LPAPKNLVVSRVTEDSARLSWTAPDAAFDSFWIRYDEVVVGGEAIVLTVPGSERSYDLTGLKPGTEYYVNILGVKGGSISVPLSAIFTT
12 | 0.4 nM | 0.2 nM | – | – | – | – | P114AR7P94-A3 (designed binder, not shown: small tags and cut ends) LPAPKNLVVSRVTEDSARLSWTAPDAAFDSFWIRYFEFLGSGEAIVLTVPGSERSYDLTGLKPGTEYVVNIMGVKGGKISPPLSAIFTT
13 | 11.6 nM | – | – | – | – | – | P114AR7P92-H5 (designed binder, not shown: small tags and cut ends) LPAPKNLVVSRVTEDSARLSWTAPDAAFDSFWIRYLEFLLGGEAIVLTVPGSERSYDLTGLKPGTEYVVQIMGVKGGTVSPPLSAIFTT
14 | 4.2 nM | 0.7 nM | – | – | – | – | P114AR7P94-E5 (designed binder, not shown: small tags and cut ends) LPAPKNLVVSRVTEDSARLSWTAPDAAFDSFWIRYFEFLGSGEAIVLTVPGSERSYDLTGLKPGTEYAVNIMGVKGGRVSVPLSAIFTT
15 | 20 nM | – | – | – | – | – | P114AR7P95-G7 (designed binder, not shown: small tags and cut ends) LPAPKNLVVSRVTEDSARLSWTAPDAAFDSFWIRYFELLSTGEAIVLTVPGSERSYDLTGLKPGTEYVVNIMGVKGGSISPPLSAIFTT
16 | 45.8 nM | 51.9 nM | – | – | – | – | P114AR5P75-E9 (designed binder, not shown: small tags and cut ends) LPAPKNLVVSRVTEDSARLSWTAPDAAFDSFFIRYDEFLRSGEAIVLTVPGSERSYDLTGLKPGTEYWVTILGVKGGLVSTPLSAIFTT
17 | 3.1 nM | 2.2 nM | – | – | – | – | P114AR7P92-F6 (designed binder, not shown: small tags and cut ends) LPAPKNLVVSRVTEDSARLSWTAPDAAFDSFWIRYFEFLGSGEAIVLTVPGSERSYDLTGLKPGTEYVVNILGVKGGGLSVPLSAIFTT
18 | 0.4 nM | – | – | – | – | – | P114AR7P95-D4 (designed binder, not shown: small tags and cut ends) LPAPKNLVVSRVTEDSARLSWTAPDAAFDSFWIRYFEFLGSGEAIVLTVPGSERSYDLTGLKPGTEYVVQILGVKGGYISIPLSAIFTT
19 | 3.7 nM | – | – | – | – | – | P114AR7P95-H8 (designed binder, not shown: small tags and cut ends) LPAPKNLVVSRVTEDSARLSWTAPDAAFDSFWIRYFEFVSKGEAIVLTVPGSERSYDLTGLKPGTEYVVNIMGVKGGSISPPLSAIFTT
20 | 1 nM | 1.6 nM | – | – | – | – | P114AR7P92-G8 (designed binder, not shown: small tags and cut ends) LPAPKNLVVSRVTEDSARLSWTAPDAAFDSFVIRYFEFLGSGEAIVLTVPGSERSYDLTGLKPGTEYVVQILGVKGGYISIPLSAIFTT
